Experimental findings from US20220177587A1, “METHODS AND USES OF VARIANT CD80 FUSION PROTEINS AND RELATED CONSTRUCTS” (Alpine Immune Sciences, Inc., priority 2018, published 2022) are described below.

The target of assay [1] is PD-L1 (human) (UniProt Q9NZQ7). The assay can be described thus: flow cytometry, CHO cells stably expressing PD-L1.
The target in assay [2] is PD-L1 (human) (UniProt Q9NZQ7). Kind of assay: flow cytometry, MFI on PD-L1 cells over MFI on CD28 cells.
For assay [3], the target named is human CTLA-4 (human) (UniProt P16410). Kind of assay: flow cytometry, CHO cells stably expressing CTLA4.
Assay [4] has as its target CD28 (human) (UniProt P10747). Kind of assay: flow cytometry, Jurkat cells (CD28). (Flow cytometry measures light scatter and fluorescence of single cells or particles in a stream.)
Assay [5] deals with CD28, endogenously expressed on Jurkat/IL2 reporter cells (human) (UniProt P10747). Kind of assay: flow cytometry on Jurkat/IL2 reporter cells (endogenous CD28), 33.3 nM Fc fusion, PE anti-human Fc.
Assay [6] has as its target human PD-L1 (huPD-L1), on stably transduced CHO cells (human) (UniProt Q9NZQ7). Kind of assay: flow cytometry on CHO cells stably expressing huPD-L1, 33.3 nM Fc fusion, PE anti-human Fc.
The target of assay [7] is human CTLA-4 (huCTLA4), on stably transduced CHO cells (human) (UniProt P16410). The assay can be described thus: flow cytometry on CHO cells stably expressing huCTLA4, 33.3 nM Fc fusion, PE anti-human Fc.
The target of assay [8] is PD-L1 (human) (UniProt Q9NZQ7). Kind of assay: flow cytometry, CHO cells expressing huPD-L1.
For assay [9], the target named is human CTLA-4 (human) (UniProt P16410). The assay can be described thus: flow cytometry, CHO cells expressing huCTLA4.
The target of assay [10] is PD-L1 (human) (UniProt Q9NZQ7). Kind of assay: flow cytometry, CHO cells expressing huPD-L1. This is another data set of the same source.
Assay [11] concerns the target human CTLA-4 (human) (UniProt P16410). Kind of assay: flow cytometry, CHO cells expressing huCTLA-4.
In assay [12] the target is CD28 (human) (UniProt P10747). Kind of assay: flow cytometry, Jurkat/IL2 reporter cells (CD28).

Sequence of human CTLA-4 (human) (P16410 36-223): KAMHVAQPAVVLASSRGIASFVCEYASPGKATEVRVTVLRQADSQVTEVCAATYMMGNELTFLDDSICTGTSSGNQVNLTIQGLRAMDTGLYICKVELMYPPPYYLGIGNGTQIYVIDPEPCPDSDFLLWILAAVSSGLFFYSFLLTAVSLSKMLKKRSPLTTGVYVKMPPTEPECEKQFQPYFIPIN
Sequence of human CTLA-4 (huCTLA4), on stably transduced CHO cells (human) (P16410 36-223): as above
Sequence of human PD-L1 (huPD-L1), on stably transduced CHO cells (human) (Q9NZQ7 19-290): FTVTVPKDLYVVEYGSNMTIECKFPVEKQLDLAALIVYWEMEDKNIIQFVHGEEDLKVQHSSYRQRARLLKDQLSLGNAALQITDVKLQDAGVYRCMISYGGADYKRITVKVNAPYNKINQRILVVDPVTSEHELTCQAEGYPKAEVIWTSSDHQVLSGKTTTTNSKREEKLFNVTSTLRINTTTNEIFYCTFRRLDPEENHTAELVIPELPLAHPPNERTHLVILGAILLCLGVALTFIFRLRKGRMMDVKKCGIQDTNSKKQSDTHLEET
Sequence of PD-L1 (human) (Q9NZQ7 19-290): as above

Take “variant CD80 IgV-Fc H18Y/A26E/M47L/A71G/D90G (Fc fusion)”: the Fold change to WT CD80 amounted to 407 fold in the assay with PD-L1 (human) [1], 18.7 fold with human CTLA-4 (human) [3] and 46.6 fold in the assay with CD28 (human) [4]. Also, the MFI at 33.3 nM was 17700 MFI with PD-L1 (human) [1], 25400 MFI with human CTLA-4 (human) [3] and 2050 MFI with CD28 (human) [4]. In the assay with PD-L1 (human) [2], the Ratio of PDL1:CD28 is 8.7.
In the case of “variant CD80 IgV-Fc H18Y/A26E/M47L/V68M/A71G (Fc fusion)”, the Fold change to WT CD80 was found to be 682 fold with PD-L1 (human) [1], 16 fold in the assay with human CTLA-4 (human) [3] and 12.4 fold with CD28 (human) [4]. For the same substance, the values for the MFI at 33.3 nM with PD-L1 (human) [1], in the assay with human CTLA-4 (human) [3] and with CD28 (human) [4] were 29700 MFI, 21700 MFI and 544 MFI, respectively. The Ratio of PDL1:CD28 with PD-L1 (human) [2] was determined as 54.7.
On to “variant CD80 IgV-Fc H18Y/A26E/M47L/V68M/D90G (Fc fusion)”, for which the figures for the Fold change to WT CD80 in the assay with PD-L1 (human) [1], with human CTLA-4 (human) [3] and with CD28 (human) [4] were 541 fold, 21.1 fold and 0.7 fold, respectively. For the same substance, the MFI at 33.3 nM with PD-L1 (human) [1] worked out at 23600 MFI; with human CTLA-4 (human) [3] it was 28600 MFI; in the assay with CD28 (human) [4], 32 MFI. The Ratio of PDL1:CD28 with PD-L1 (human) [2] is 737.
For the substance “variant CD80 IgV-Fc H18Y/E35D (Fc fusion)”, the MFI at 33.3 nM in assay [5] came out at 479 MFI; in [6] it was 3530 MFI; in assay [7] it was 26300 MFI.
As to “variant CD80 IgV-Fc H18Y/E35D/M47L/V68M/A71G (Fc fusion)”, the Fold change to WT CD80 with PD-L1 (human) [1] was 697 fold; with human CTLA-4 (human) [3], 17.4 fold; with CD28 (human) [4], 21.1 fold. For the same substance, the MFI at 33.3 nM with PD-L1 (human) [1] is 30400 MFI; with human CTLA-4 (human) [3], 23700 MFI; with CD28 (human) [4], 928 MFI. Further, the Ratio of PDL1:CD28 with PD-L1 (human) [2] amounted to 32.7.
In the case of “variant CD80 IgV-Fc H18Y/E35D/M47L/V68M/A71G/D90G (Fc fusion)”, the Fold change to WT CD80 with PD-L1 (human) [1] is 687 fold; in the assay with human CTLA-4 (human) [3], 14.6 fold; in the assay with CD28 (human) [4], 63.6 fold. For the same substance, the MFI at 33.3 nM in the assay with PD-L1 (human) [1] came out at 29900 MFI; with human CTLA-4 (human) [3] it was 19900 MFI; with CD28 (human) [4] it was 2790 MFI. Also, the Ratio of PDL1:CD28 in the assay with PD-L1 (human) [2] is 10.7.
Take “variant CD80 IgV-Fc H18Y/E35D/M47V/N48K (Fc fusion)”: the MFI at 33.3 nM worked out at 841 MFI in [5] and 6460 MFI in assay [6].
“variant CD80 IgV-Fc I30V/E35D/M47V/A71G/A91V (Fc fusion)”: the results for the MFI at 33.3 nM in the assay with PD-L1 (human) [8] and in the assay with human CTLA-4 (human) [9] were 43900 MFI and 205000 MFI, respectively.
As to variant CD80 IgV-Fc K89N (Fc fusion), the MFI at 33.3 nM with PD-L1 (human) [10] was 52.8 MFI; in the assay with human CTLA-4 (human) [11] it was 944 MFI; with CD28 (human) [12], 56.3 MFI.
For the substance variant CD80 IgV-Fc L85Q (Fc fusion), the values for the MFI at 33.3 nM with PD-L1 (human) [10], with human CTLA-4 (human) [11] and with CD28 (human) [12] were 97 MFI, 3000 MFI and 35 MFI, respectively.
With “variant CD80 IgV-Fc M43I/M47L/A71G (Fc fusion)”, the figures for the MFI at 33.3 nM in [5], in [6] and in assay [7] were 1000 MFI, 7760 MFI and 23300 MFI, respectively.
In the case of “variant CD80 IgV-Fc M47L/V68M/L85Q (Fc fusion)”, the MFI at 33.3 nM with PD-L1 (human) [10] is 4040 MFI; in the assay with human CTLA-4 (human) [11], 11100 MFI; in the assay with CD28 (human) [12] it was 60.9 MFI.
Turning to “variant CD80 IgV-Fc M47V/K89N (Fc fusion)”, the MFI at 33.3 nM with PD-L1 (human) [10] amounted to 622 MFI; with human CTLA-4 (human) [11] it was 32400 MFI; with CD28 (human) [12], 197 MFI.
As to “variant CD80 IgV-Fc M47V/N48K (Fc fusion)”, the MFI at 33.3 nM with PD-L1 (human) [10] stood at 3080 MFI; in the assay with human CTLA-4 (human) [11] it was 44600 MFI; with CD28 (human) [12], 413 MFI.
For “variant CD80 IgV-Fc M47V/V68M/K89N (Fc fusion)”, in that order: 11800 MFI, 24800 MFI and 1320 MFI.
With variant CD80 IgV-Fc N48K (Fc fusion), the MFI at 33.3 nM with PD-L1 (human) [10] came to 481 MFI; with human CTLA-4 (human) [11], 4950 MFI; in the assay with CD28 (human) [12] it was 60.1 MFI.
For “variant CD80 IgV-Fc N48K/V68M (Fc fusion)”, in that order: 754 MFI, 2340 MFI and 118 MFI.
Consider “variant CD80 IgV-Fc Q33R/E35D/M47V/N48K/L85M/F92L (Fc fusion)”, for which the MFI at 33.3 nM was 21400 MFI with PD-L1 (human) [8] and 2680 MFI with human CTLA-4 (human) [9].
In the case of “variant CD80 IgV-Fc V22A/E35D/M47L/A71G (Fc fusion)”, the MFI at 33.3 nM came to 990 MFI in [5], 8170 MFI in assay [6] and 21900 MFI in [7].
In the case of variant CD80 IgV-Fc V68M (Fc fusion), the MFI at 33.3 nM in the assay with PD-L1 (human) [10] was 118 MFI; in the assay with human CTLA-4 (human) [11] it was 568 MFI; in the assay with CD28 (human) [12], 37.9 MFI.
In the same order, the values of “variant CD80 IgV-Fc V68M/L85Q (Fc fusion)” are 347 MFI, 3290 MFI and 91.7 MFI.
